Reference: article PMC9018054, “Biotechnological potential and initial characterization of two novel sesquiterpene synthases from Basidiomycota Coniophora puteana for heterologous production of δ-cadinol” (Microbial Cell Factories, 2022)

How the values were obtained:
Copu5 = target: T1, Copu5 (Coniophora puteana, UniProt A0A5M3MX24); assay: sesquiterpene production in E. coli, GC-MS and NMR of product; type: cell-based; settings: E. coli HMS174 (DE3) with DXS and IDI co-expression, endogenous FPP; product (+)-δ-cadinol
T1 construct: full-length, codon-optimized, N-terminal hexa-His tag (pET-M11) for thermal shift, expressed in E. coli BL21 RIL DE3; purified in pyrophosphate-containing buffer; pACYC-based operon in E. coli HMS174 (DE3) for terpene production
T1 sequence (A0A5M3MX24 entry or part of it): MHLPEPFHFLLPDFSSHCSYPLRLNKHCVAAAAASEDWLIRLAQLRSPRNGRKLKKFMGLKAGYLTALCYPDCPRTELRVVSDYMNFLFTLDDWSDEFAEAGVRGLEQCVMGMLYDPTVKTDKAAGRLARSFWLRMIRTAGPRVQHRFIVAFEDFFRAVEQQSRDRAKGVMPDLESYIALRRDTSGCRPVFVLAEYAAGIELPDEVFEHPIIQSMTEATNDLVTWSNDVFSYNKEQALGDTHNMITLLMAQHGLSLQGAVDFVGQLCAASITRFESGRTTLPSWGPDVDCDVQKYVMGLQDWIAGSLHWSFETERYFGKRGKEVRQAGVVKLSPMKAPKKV

purified protein = substrate: CC(C)=CCC/C(C)=C/CC/C(C)=C/CO[P@@](=O)(O)OP(=O)(O)O; assay: purified protein; type: biochemical, Coniophora puteana; settings: 25 °C, FPP 0-70 µM in methanol, 0.8–1.2 µM enzyme
[1] = target: the molecule itself; assay: SEC; HighLoad Superdex S200 16/60; 20 mM Tris/HCl pH 7.5, 150 mM NaCl, 5 mM MgCl2; calibrated with a high molecular weight standard

CC(C)=CCC/C(C)=C/CC/C(C)=C/COP(=O)(O)OP(=O)(O)O [FPP]
sesquiterpene production in E. coli, GC-MS and NMR of product (Copu5): catalyze the formation of (+)-δ-cadinol as main product from its direct precursor FPP

B1: Copu9 (Coniophora puteana RWD-64-598 SS2; N228A) (protein)
chain: MSPTATFTTTSSEENAPTKFILPDLVSDCTYPLLLNDNCEPVARASEQWLIAGARLQEPRRTKFMGLLAGELTAACYPHADASHLRVCVDFMNWLFNMDDWLDDFDVDDTWGMRHCCLGAFRDPVGFETDKLGGLMSKSFFSRFRQDGGPGCTERFIHTMDLFFIAVAQQAGDRANGITPDLESYITVRRDTSGCKPCFALIEYAAGIDLPDHVIYHPTLAAMEEATADLVTWSNDIFSYNKEQVTDDTHNMIPVLMRERGLDLQGAVDFVGRLCKGTIERFETERARLPSWGPELDAQVQTYIEGLQNWIVGSLHWSFDSHRYFGKDGHAVKKHRIVKLLPKRVPQQA
notes: full-length, codon-optimized, N-terminal hexa-His tag (pET-M11), expressed in E. coli BL21 RIL DE3; homodimer; 13 N-terminal residues not visible in crystal
Km (purified protein): 4.42 ± 0.59 µM | kcat (purified protein): 0.0262 ± 0.0007 s⁻¹ | kcat/Km (purified protein): 5940 M⁻¹ s⁻¹

B2: Copu9 (Coniophora puteana RWD-64-598 SS2; S314N) (protein)
chain: MSPTATFTTTSSEENAPTKFILPDLVSDCTYPLLLNDNCEPVARASEQWLIAGARLQEPRRTKFMGLLAGELTAACYPHADASHLRVCVDFMNWLFNMDDWLDDFDVDDTWGMRHCCLGAFRDPVGFETDKLGGLMSKSFFSRFRQDGGPGCTERFIHTMDLFFIAVAQQAGDRANGITPDLESYITVRRDTSGCKPCFALIEYAAGIDLPDHVIYHPTLAAMEEATNDLVTWSNDIFSYNKEQVTDDTHNMIPVLMRERGLDLQGAVDFVGRLCKGTIERFETERARLPSWGPELDAQVQTYIEGLQNWIVGNLHWSFDSHRYFGKDGHAVKKHRIVKLLPKRVPQQA
notes: as for B1
Km (purified protein): 5.10 ± 0.54 µM | kcat (purified protein): 0.0192 ± 0.0005 s⁻¹ | kcat/Km (purified protein): 3760 M⁻¹ s⁻¹

B3: Copu9 (Coniophora puteana RWD-64-598 SS2) (protein)
chain: MSPTATFTTTSSEENAPTKFILPDLVSDCTYPLLLNDNCEPVARASEQWLIAGARLQEPRRTKFMGLLAGELTAACYPHADASHLRVCVDFMNWLFNMDDWLDDFDVDDTWGMRHCCLGAFRDPVGFETDKLGGLMSKSFFSRFRQDGGPGCTERFIHTMDLFFIAVAQQAGDRANGITPDLESYITVRRDTSGCKPCFALIEYAAGIDLPDHVIYHPTLAAMEEATNDLVTWSNDIFSYNKEQVTDDTHNMIPVLMRERGLDLQGAVDFVGRLCKGTIERFETERARLPSWGPELDAQVQTYIEGLQNWIVGSLHWSFDSHRYFGKDGHAVKKHRIVKLLPKRVPQQA
notes: as for B1
Km (purified protein): 4.59 ± 0.17 µM | kcat (purified protein): 0.0324 ± 0.0003 s⁻¹ | kcat/Km (purified protein): 7070 M⁻¹ s⁻¹

B4: Copu9 (Coniophora puteana RWD-64-598 SS2; T73C) (protein)
chain: MSPTATFTTTSSEENAPTKFILPDLVSDCTYPLLLNDNCEPVARASEQWLIAGARLQEPRRTKFMGLLAGELCAACYPHADASHLRVCVDFMNWLFNMDDWLDDFDVDDTWGMRHCCLGAFRDPVGFETDKLGGLMSKSFFSRFRQDGGPGCTERFIHTMDLFFIAVAQQAGDRANGITPDLESYITVRRDTSGCKPCFALIEYAAGIDLPDHVIYHPTLAAMEEATNDLVTWSNDIFSYNKEQVTDDTHNMIPVLMRERGLDLQGAVDFVGRLCKGTIERFETERARLPSWGPELDAQVQTYIEGLQNWIVGSLHWSFDSHRYFGKDGHAVKKHRIVKLLPKRVPQQA
notes: as for B1
Km (purified protein): 6.28 ± 1.37 µM | kcat (purified protein): 0.0502 ± 0.0026 s⁻¹ | kcat/Km (purified protein): 8000 M⁻¹ s⁻¹

B5: Copu9 (Coniophora puteana RWD-64-598 SS2; C76V) (protein)
chain: MSPTATFTTTSSEENAPTKFILPDLVSDCTYPLLLNDNCEPVARASEQWLIAGARLQEPRRTKFMGLLAGELTAAVYPHADASHLRVCVDFMNWLFNMDDWLDDFDVDDTWGMRHCCLGAFRDPVGFETDKLGGLMSKSFFSRFRQDGGPGCTERFIHTMDLFFIAVAQQAGDRANGITPDLESYITVRRDTSGCKPCFALIEYAAGIDLPDHVIYHPTLAAMEEATNDLVTWSNDIFSYNKEQVTDDTHNMIPVLMRERGLDLQGAVDFVGRLCKGTIERFETERARLPSWGPELDAQVQTYIEGLQNWIVGSLHWSFDSHRYFGKDGHAVKKHRIVKLLPKRVPQQA
notes: as for B1
Km (purified protein): 3.14 ± 0.45 µM | kcat (purified protein): 0.0291 ± 0.0007 s⁻¹ | kcat/Km (purified protein): 9250 M⁻¹ s⁻¹

B6: Copu9 (Coniophora puteana RWD-64-598 SS2; T192N) (protein)
chain: MSPTATFTTTSSEENAPTKFILPDLVSDCTYPLLLNDNCEPVARASEQWLIAGARLQEPRRTKFMGLLAGELTAACYPHADASHLRVCVDFMNWLFNMDDWLDDFDVDDTWGMRHCCLGAFRDPVGFETDKLGGLMSKSFFSRFRQDGGPGCTERFIHTMDLFFIAVAQQAGDRANGITPDLESYITVRRDNSGCKPCFALIEYAAGIDLPDHVIYHPTLAAMEEATNDLVTWSNDIFSYNKEQVTDDTHNMIPVLMRERGLDLQGAVDFVGRLCKGTIERFETERARLPSWGPELDAQVQTYIEGLQNWIVGSLHWSFDSHRYFGKDGHAVKKHRIVKLLPKRVPQQA
notes: as for B1
Km (purified protein): 8.28 ± 0.60 µM | kcat (purified protein): 0.0396 ± 0.0008 s⁻¹ | kcat/Km (purified protein): 4780 M⁻¹ s⁻¹

B7: Copu9 (Coniophora puteana RWD-64-598 SS2; G194A) (protein)
chain: MSPTATFTTTSSEENAPTKFILPDLVSDCTYPLLLNDNCEPVARASEQWLIAGARLQEPRRTKFMGLLAGELTAACYPHADASHLRVCVDFMNWLFNMDDWLDDFDVDDTWGMRHCCLGAFRDPVGFETDKLGGLMSKSFFSRFRQDGGPGCTERFIHTMDLFFIAVAQQAGDRANGITPDLESYITVRRDTSACKPCFALIEYAAGIDLPDHVIYHPTLAAMEEATNDLVTWSNDIFSYNKEQVTDDTHNMIPVLMRERGLDLQGAVDFVGRLCKGTIERFETERARLPSWGPELDAQVQTYIEGLQNWIVGSLHWSFDSHRYFGKDGHAVKKHRIVKLLPKRVPQQA
notes: as for B1
Km (purified protein): 7.00 ± 0.37 µM | kcat (purified protein): 0.036 ± 0.0005 s⁻¹ | kcat/Km (purified protein): 5140 M⁻¹ s⁻¹

B8: Copu9 (Coniophora puteana RWD-64-598 SS2; C195V) (protein)
chain: MSPTATFTTTSSEENAPTKFILPDLVSDCTYPLLLNDNCEPVARASEQWLIAGARLQEPRRTKFMGLLAGELTAACYPHADASHLRVCVDFMNWLFNMDDWLDDFDVDDTWGMRHCCLGAFRDPVGFETDKLGGLMSKSFFSRFRQDGGPGCTERFIHTMDLFFIAVAQQAGDRANGITPDLESYITVRRDTSGVKPCFALIEYAAGIDLPDHVIYHPTLAAMEEATNDLVTWSNDIFSYNKEQVTDDTHNMIPVLMRERGLDLQGAVDFVGRLCKGTIERFETERARLPSWGPELDAQVQTYIEGLQNWIVGSLHWSFDSHRYFGKDGHAVKKHRIVKLLPKRVPQQA
notes: as for B1
Km (purified protein): 8.48 ± 0.51 µM | kcat (purified protein): 0.0398 ± 0.0007 s⁻¹ | kcat/Km (purified protein): 4690 M⁻¹ s⁻¹

B9: Copu9 (Coniophora puteana RWD-64-598 SS2; P197C) (protein)
chain: MSPTATFTTTSSEENAPTKFILPDLVSDCTYPLLLNDNCEPVARASEQWLIAGARLQEPRRTKFMGLLAGELTAACYPHADASHLRVCVDFMNWLFNMDDWLDDFDVDDTWGMRHCCLGAFRDPVGFETDKLGGLMSKSFFSRFRQDGGPGCTERFIHTMDLFFIAVAQQAGDRANGITPDLESYITVRRDTSGCKCCFALIEYAAGIDLPDHVIYHPTLAAMEEATNDLVTWSNDIFSYNKEQVTDDTHNMIPVLMRERGLDLQGAVDFVGRLCKGTIERFETERARLPSWGPELDAQVQTYIEGLQNWIVGSLHWSFDSHRYFGKDGHAVKKHRIVKLLPKRVPQQA
notes: as for B1
Km (purified protein): 6.82 ± 0.77 µM | kcat (purified protein): 0.0381 ± 0.001 s⁻¹ | kcat/Km (purified protein): 5580 M⁻¹ s⁻¹

B10: Copu9, (+)-δ-cadinol synthase from Coniophora puteana (enzyme, UniProt A0A5M3MXY8 1-349, looked up)
chain: MSPTATFTTTSSEENAPTKFILPDLVSDCTYPLLLNDNCEPVARASEQWLIAGARLQEPRRTKFMGLLAGELTAACYPHADASHLRVCVDFMNWLFNMDDWLDDFDVDDTWGMRHCCLGAFRDPVGFETDKLGGLMSKSFFSRFRQDGGPGCTERFIHTMDLFFIAVAQQAGDRANGITPDLESYITVRRDTSGCKPCFALIEYAAGIDLPDHVIYHPTLAAMEEATNDLVTWSNDIFSYNKEQVTDDTHNMIPVLMRERGLDLQGAVDFVGRLCKGTIERFETERARLPSWGPELDAQVQTYIEGLQNWIVGSLHWSFDSHRYFGKDGHAVKKHRIVKLLPKRVPQQA
notes: Copu9, sesquiterpene synthase ((+)-δ-cadinol synthase) of Coniophora puteana, XP_007765560; codon-optimised open reading frame; the crystal structure is complete except for the 13 N-terminal residues; no removal of the tag is described; Crystallised with three Mg2+ ions and alendronate (AHD); also called Copu9 WT; Copu9·Mg3·AHD; source: E. coli BL21 RIL DE3, purified (Ni2+-NTA, size exclusion …)
stoichiometry N [1]: 2
